Source: the supplement of paper PMC9170038

What was measured:
[1] = test system: MS2 coat protein; assay: apparent KD of MS2 coat protein, switch ON state; designed switch direction (-1 OFF switch, 1 ON switch): -1; higher = weaker reporter binding; settings: FMN input: 0 or 200 uM; Eterna round: R93 (includes R88 designs)
Method in brief: (§1)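 Designed RNA switches were made by on-chip transcription from Illumina sequencing clusters and then titrated with SNAP-549-labelled MS2 coat protein. Twofold steps ran from 0.7 or 1.5 nM to 3 µM, each lasting 0.8–1.5 h early and 10–20 min late, in 100 mM Tris-HCl pH 7.5, 80 mM KCl, 4 mM MgCl2, without or with constant ligand. Apparent KD is the per-design median of normalised cluster binding-curve fits.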

[2] = test system: MS2 coat protein; assay: apparent KD of MS2 coat protein, switch OFF state (with FMN for OFF switches, without FMN for ON switches); designed switch direction (-1 OFF switch, 1 ON switch): -1; higher = weaker reporter binding; settings: FMN input: 0 or 200 uM; Eterna round: R93 (includes R88 designs)
Method in brief: as §1

For “AUCAUGUAAGGAUAUUUAAGAAAAGAAAAGAAAGAAAAGAAAAAGAAGGUACAUGAGGAUCACCCAUGUAAGAA [EteRNA is fun!]”, the “apparent KD of MS2 coat protein” value [1] was 27.1 nM and the “apparent KD of MS2 coat protein” value [2] was 18.9 nM.

“AUCGAUCGAGGAUAUACAUGAGGAUCACCCAUGUAAAAAAAAAAAAAGUCCUCAGGACGUAGAAGGCGACGCAA [JR_Exc003_Sub401]” was tested, and the “apparent KD of MS2 coat protein” value [1] was 16.6 nM and the “apparent KD of MS2 coat protein” value [2] was 22.3 nM.

“AUCUUGUCAGGAUAUGACUACAUAAAAAAUAAAAAAUGUAGUCAGAAGGGACAUGAGGAUCACCCAUGUACCAA [Mat - Exclusion 4 - Eli mod - D96]” was tested, and the “apparent KD of MS2 coat protein” value [1] was 20.4 nM and the “apparent KD of MS2 coat protein” value [2] was 22.3 nM.

In the case of “AUGUACCUAGGAUAUACAUGAGGAUCACCCAUGUACUGGGAGCAAUCAAGUUAAUAUUGUAGAAGGAGGUGAAA [JR_Exc003_Sub315]”, the “apparent KD of MS2 coat protein” value [1] is reported as 20.1 nM and the “apparent KD of MS2 coat protein” value [2] is reported as 58.6 nM.

“AUGUAGGGAGGAUAUACAUAGAUACAGAUUCAUGUGGAACUACAUGAGGAUCACCCAUGUAGAAGGCCCUAAAA [Mat - Same state - Mayanna Mod - D125]” was tested, and the “apparent KD of MS2 coat protein” value [1] was 27.4 nM and the “apparent KD of MS2 coat protein” value [2] was 117 nM.

In the case of “AUUAUGUCAGGAUAUCAGUAGUAAAAAAAAAAAAUUACUACUGAGAAGGGACAUGAGGAUCACCCAUGUCAAAA [EX4 308: Super Stable 8]”, the “apparent KD of MS2 coat protein” value [1] is reported as 39 nM and the “apparent KD of MS2 coat protein” value [2] is reported as 34 nM.

In the case of “CAAAGGUGAGGAUAUACAAAACUAUGACGAAAGUCAUAAAAACAUGAGGAUCACCCAUGUAGAAGGCACCACAA [E2 64% 2]”, the “apparent KD of MS2 coat protein” value [1] is reported as 31.6 nM and the “apparent KD of MS2 coat protein” value [2] is reported as 23.7 nM.

In the case of “CACGUACAUGAGGAUCACCCAUGUUAGGAUAUGCCGGGUAAGAGAAAACAAAAAAUCAGCAGAAGGAACGAAAC [Bilbo Confounded 18 - Jieux - Exclusion 1]”, the “apparent KD of MS2 coat protein” value [1] is reported as 28.2 nM and the “apparent KD of MS2 coat protein” value [2] is reported as 28.5 nM.

“CAGUACUGAGGAUAUACAUGAGGAUCACCCAUGUAUCAAAGCUAGGAAACUAGCACAUGUAGAAGGCAGUACUG [Ex3: 823]” was tested, and the “apparent KD of MS2 coat protein” value [1] was 25.7 nM and the “apparent KD of MS2 coat protein” value [2] was 132 nM.

“CAGUACUGAGGAUAUACAUGAGGAUCACCCAUGUGGUCAAGCUAGGAAACUAGCAAAUGUAGAAGGCAGUACUG [Ex3: 812]” was tested, and the “apparent KD of MS2 coat protein” value [1] was 80.9 nM and the “apparent KD of MS2 coat protein” value [2] was 35.6 nM.

“CCAGAUGCAGGAUAUACAUGAGGAUCACCCAUGUGGCACACACCCACCCACAGCACCCGUAGAAGGGCAGCACG [Halfast on Cytosine - Jieux - Exclusion 3]” was tested, and the “apparent KD of MS2 coat protein” value [1] was 27 nM and the “apparent KD of MS2 coat protein” value [2] was 25.9 nM.

In the case of “CCUGGCUUAGGAUAUACAGGAACCGGGAACCCGGAAGUGAAACAUGAGGAUCACCCAUGUAGAAGGAAGAAAGC [Leusanzaus]”, the “apparent KD of MS2 coat protein” value [1] is reported as 23.9 nM and the “apparent KD of MS2 coat protein” value [2] is reported as 19.1 nM.

For “CGUCCACAUGAGGAUCACCCAUGUUAGGAUAUCUAUACUAAAUACAAAACCCAAGUCAAGAGAAGGAGCAGGGC [Teteeresve]”, the “apparent KD of MS2 coat protein” value [1] was 13.9 nM and the “apparent KD of MS2 coat protein” value [2] was 12 nM.

In the case of “CGUUGGCGAGGAUAUACAUGAGGAUCACCCAUGUGAGAGAAAAAAGUGAGAAAGAAAAGUAGAAGGCGCUGACC [salish99-ex3-13]”, the “apparent KD of MS2 coat protein” value [1] is reported as 45.1 nM and the “apparent KD of MS2 coat protein” value [2] is reported as 162 nM.

“CUCAAGUCAGGAUAUAUAAGAAAAGAAGAGAAAGAAAAGAAAUAGAAGGGACAUGAGGAUCACCCAUGUAAGAA [EteRNA is fun!]” was tested, and the “apparent KD of MS2 coat protein” value [1] was 34.5 nM and the “apparent KD of MS2 coat protein” value [2] was 36.9 nM.

“CUCAAGUCAGGAUAUUAAAGAAAAGAAGAGAAAGAAAAGAAUAAGAAGGGACAUGAGGAUCACCCAUGUAAGAA [EteRNA is fun!]” was tested, and the “apparent KD of MS2 coat protein” value [1] was 57.3 nM and the “apparent KD of MS2 coat protein” value [2] was 30.9 nM.

With “CUCAAGUUAGGAUAUGAAAGAAAAGAAGAGAAAGAAAAGAAUCAGAAGGAACAUGAGGAUCACCCAUGUAAGAA [EteRNA is fun!]” the “apparent KD of MS2 coat protein” value [1] was 29.7 nM and the “apparent KD of MS2 coat protein” value [2] was 19.5 nM.

With “CUCAUGUCAGGAUAUCAGUAGUAAAAAAAAAAAAUUACUACUGAGAAGGGACAUGAGGAUCACCCAUGUACCUU [EX4 302: Super Stable 2]” the “apparent KD of MS2 coat protein” value [1] was 25.4 nM and the “apparent KD of MS2 coat protein” value [2] was 29.1 nM.

With “CUCAUGUCAGGAUAUCAGUAGUAAAAAAAUAAAAUUACUACUGAGAAGGGACAUGAGGAUCACCCAUGUCAAAA [EX4 363: Super Stable 63]” the “apparent KD of MS2 coat protein” value [1] was 20.7 nM and the “apparent KD of MS2 coat protein” value [2] was 19.8 nM.

For “CUCAUGUCAGGAUAUCCAUGAAAUGAAGUGAAAGAAAAGAAGGAGAAGGGACAUGAGGAUCACCCAUGUUAGAA [EteRNA is fun!]”, the “apparent KD of MS2 coat protein” value [1] was 34.1 nM and the “apparent KD of MS2 coat protein” value [2] was 17.1 nM.

In the case of “CUCAUGUUAGGAUAUAUAUGAAAUGAAGUGAAAGAAAAGAAAUAGAAGGAACAUGAGGAUCACCCAUGUUAGAA [EteRNA is fun!]”, the “apparent KD of MS2 coat protein” value [1] is reported as 51 nM and the “apparent KD of MS2 coat protein” value [2] is reported as 32.6 nM.

With “CUCUAGUCAGGAUAUGCAAGAAAAGAAGAGAAAGAAAAGAAGCAGAAGGGACAUGAGGAUCACCCAUGUAAGAA [EteRNA is fun!]” the “apparent KD of MS2 coat protein” value [1] was 51.3 nM and the “apparent KD of MS2 coat protein” value [2] was 83.4 nM.
